The target in the experiment is purified recombinant endophilin A1-SH3 (ITC and NMR) (UniProt O35179 291-352). Put plainly: ITC. (In general: ITC needs no label: the signal is the heat of the interaction.)
Sequence of purified recombinant endophilin A1-SH3 (ITC and NMR) (O35179 291-352): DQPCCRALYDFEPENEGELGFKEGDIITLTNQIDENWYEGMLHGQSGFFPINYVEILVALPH

B1: purified recombinant intersectin 1-SH3B (ITC and NMR) (domain or fragment)
chain: LQAQALYPWRAKKDNHLNFNKNDVITVLEQQDMWWFGEVQGQKGWFPKSYVKLIS
Turning to B1, the equilibrium dissociation constant (Kd) is around 30 µM and the “stoichiometry N” value turned out to be 1.

By Kd is commonly meant the constant that tells how readily two partners part at equilibrium. The stoichiometry N is the number of molecules, sites or subunits per partner or assembly.

Values taken from PMC4328750 (EMBO Reports, 2014).
